The text below walks through data of patent US20100035363A1 (TIBOTEC PHARMACEUTICALS, published 2010).

In one assay the target is T1, biotin-labeled RSV-IQN51 (Respiratory Syncytial Virus (F1 part), biotin label (position not stated in the example); captured on streptavidin-allophycocyanin in the assay).
T1 construct: Synthetic peptide; In the assay it was pre-mixed with streptavidin-APC (final 100 nM IQN51-biotin, 10 nM streptavidin-APC); also called IQN51-biotin; IQN51-APC
As to the kind of experiment: time-resolved FRET competition, IQN51-APC/C39-Eu assay; competitor C39-Eu.

The target in another assay is T2, biotin-labeled RSV-IQN57 (Respiratory Syncytial Virus (F1 part), biotin label (position not stated in the example); captured on streptavidin-allophycocyanin in the assay).
T2 construct: Synthetic peptide; In the assay it was pre-mixed with streptavidin-APC (final 100 nM IQN57-biotin, 10 nM streptavidin-APC); also called IQN57-biotin; IQN57-APC
T2 peptide: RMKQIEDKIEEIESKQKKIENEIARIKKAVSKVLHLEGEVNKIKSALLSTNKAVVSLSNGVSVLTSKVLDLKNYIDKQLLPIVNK
Put plainly: time-resolved FRET competition, IQN57-APC/C45-Eu assay; competitor C45-Eu.

Description for biotin-labeled RSV-IQN51: (§1) Test compounds were serially diluted in PBS and then added to 384-well plates.
In an alternative set-up, equal volumes of the IQN51-biotin and strepatavidin-APC solution were mixed and incubated for 30 min at room temperature in tubes. Next, these mixes were transferred from the tubes to plates containing test compounds (ratio 2:1) and incubated for 2 h at room temperature. […] After incubating the plates for 30 min at room temperature, the fluorescence resonance energy transfer (FRET) signal was detected using a Viewlux reader and used to calculate the IC₅₀ of the test compound. A final DMSO percentage of 0.5% was applied. This assay is named the IQN51-APC/C39-Eu assay.
Description for biotin-labeled RSV-IQN57: as §1
Equal volumes of the IQN57-biotin and strepatavidin-APC solution were mixed and incubated for 30 min at room temperature in tubes. Next, these mixes were transferred from the tubes to plates containing test compounds (ratio 2:1) and incubated for 2 h at room temperature. […] After incubating the plates for 30 min at room temperature, the fluorescence resonance energy transfer (FRET) signal was detected using a Viewlux reader and used to calculate the 50% inhibitory concentration (IC₅₀) of the test compound. IC₅₀ is the drug concentration at which 50% of the FRET signal (or 6HB complex formation) is inhibited. A final DMSO percentage of 0.5% was applied. This assay is named the IQN57-APC/C45-Eu assay.

The IC50 is the concentration at which inhibition is half-maximal. Regarding VFPSDEFDASISQVNEKINQSLAFIRKSDELLHNVNAGK [RSV-C39], the IC50 in the assay with biotin-labeled RSV-IQN51 turned out to be 76 nM; with biotin-labeled RSV-IQN57, 64 nM.

With NFYDPLVFPSDEFDASISQVNEKINQSLAFIRKSDELLHNVNAGK [RSV-C45], the IC50 is 76 nM in the assay with biotin-labeled RSV-IQN51 and 74 nM with biotin-labeled RSV-IQN57.
